The sequences below were run on K4 kissing-loop RNA reporter (assay: apparent KD of K4 kissing-loop reporter; higher = weaker reporter binding). Conditions: Eterna round: R107; input ligand: none.
Experimental: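 RNA-MaP round R107: designed RNA switches with theophylline, tryptophan, arginine or FMN aptamers are transcribed on-chip within common flanks. They are titrated with a labelled K4 kissing-loop RNA reporter in RNA-MaP buffer (100 mM Tris pH 7.5, 80 mM KCl, 4 mM MgCl2), without ligand or with the indicated ligand. Median apparent KD per design.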
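Further: bound reporter read as fluorescence of individual clusters on recovered sequencing chips by microscopy, with normalized cluster intensities fitted with a binding model.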

Row | Sequence | apparent KD of K4 kissing-loop reporter [nM]
1 | CGAGUGAUGUUCGUUUUUUACUCUUUUUGACAGGAUAUGCGGAAACGCAGAAGGGUCACCUUUGAGUUAAAAGGAGUUAUUUUUU [Ex FMN A 19] | 318
2 | UCGUCUGUGUGAGGAUAUCCAAGCGAGCUGCGUACAGGUGCGGCGUUUGGAGUGAUGUUCCAGGCAGGAGAAGGCGCACGGGCUU [Esored] | 284
3 | GAAUGGAGUGAUGUUCCAUUAACGAUCCUACGAGGACCGGUACGGCCGCCACUCGUAUUGCAGUGAUGUUGCAACCAGCCGUACU [Exclusion Tryptophan A GF 9] | 114
4 | AUGCUUCAGUAAGGAUAUGGAGGCAGAGUGAAGAUUGUCGUGUAACCGAGUUAAGUGAUGUUUGAUCCAGAAGGUACAUGCGUGU [theeternabot_exclusion_KL_FMN_B_15] | 885
5 | UGCGCUGUGUACUGUAAUGUUAUGCGGGAUACCAGAGUCUUUUUAUUCCCUUGGCAGCUUGAGUGAUGUUUGAUGCCGUUCUUGU [plpkmullin] | 504
6 | GGUAUGGAAGCAACAUCACAAGCCGUACCACGAGGACCGGUACGGCCGCCACUCGAUAACUUGCAGUGAUGUUGCAAGUAAGAAU [(T)''-(K)'-(T)'-(T1)-(T2)-(K1)-(K2)_Design6] | 133
7 | GGUUCUGGUUUGGAGUGAUGUUCUAAGUGGCAGGAUAUGGAGAGAUCCAGAAGGGCCGUUUGUAUCUUUUUUGUGUGGUUUUUUU [Last Minute #2] | 231
8 | AAAUUUAAUAUAUUUAAUUAAUUAUGUGAUACCAGACAUUAAUAAGUCCCUUGGCAGCACAAUGCAGUGAUGUUGCUUAUAAUAA [JR_SSTheophyA_Sub010] | 86.9
9 | AGAGUUAUAUGAGGAUAUGGGAUAGUAACUGAGUGAGUUAUAGUGUAGUUUGUUUAGUGAUGUUAUUUAGAAGGCGUGAGUGAUG [wwwsemullin] | 147
10 | AUGUCGUUAUAGUGAGUGAUGUUCACUGUGCGAGGACCGGUACGGCCGCCACUCGAGAGUGGUGGACACUGAGUCACUCUGACAC [Tryp A Ex t2] | 130
11 | UGGACCUGACUCGAUAAGAGUCAAUGAGAUACCAGCCACGAAAGUGGCCCUUGGCAGCUCUGCCAGUGAUGUUGGUCAAGGUCCU [#SwitchBubble 5 #StaticStem] | 1550
12 | GAAAUCACGGAUGAUACCAGCCAGAACUCUCACAGUGAUGUUGUGCUUAAAUGAUUAGGAGGCCCUUGGCAGCAUACGCUAAUUU [theeternabot_sameState_KL_Theo_B_36] | 313
13 | CCUCACGUAGGACUAGUGAUGUUAGACUACCGAGGACCGGUACGGCCGCCACUCGUCGUACAAGAUAACCUUCCGCCAGUAUACA | 99.9
14 | AGUCCACUCUAAAGAGUGGACCUAAGGGAUACCAGUGAUGUUGGUCACCCUUGGCAGCCCGCUGUCAUCGAUAAAGAUGGCAGUA | 112
15 | AUUCGUCUCUGAGGAUAUCAGAGGAGAGUGAUGUUCUCCCAUAGCCCAGUGAUGUUGGAUGCUAUCUGAGAAGGCAGUGGGCGAA [Same State FMN B GF 14] | 213
16 | AGGAUGUAGUGAUGUUAUAUAAAAGGUAAACGAGGACCGGUACGGCCGCCACUCGAAGCGGCUGCUAAGAGGGAAAGAAGAGGAA [ExTryptoA.E] | 570
17 | UUAGAGAUCUCAGGAUAUGAGUGAUGUUGGUGUCAAGAUCUGAGAUAGAAUUCUAUCUCAGAUCAAUCAGAAGGGAGAUCUCAUU [AK2.2 Exc FMN B] | 483
18 | GGUAGCAUGGCGGCCGCCACUCUUCAUUAGUGAUGUUAAUGCCGAGUGCGCUAACUCCUACGGGAGAGGACCGGGCCAUGCUACC | 25.8
19 | AAAUAGAUCAGUCACCCAGUGAUGUUGGAAGGAGCGUGCGAAAGCACAGGUAGGUCGCCAAAACCUAAGUGGCUGAUCAAAAUAA [#SwitchBubble 4 #K4Early] | 819
20 | GCUAUGGUAGGAAGGAGCGCGGACGGUAUUUGUCGAGUGAUGUUCGAUUCUUUAAUUUGAACGCAGGUAGGUCGCCUACUAUAGC [Arginine B K4 30] | 226
21 | UGUCAUUGGUCGGCCGCCACUAGAAGGUCAAAGACCAUGGAGUGAUGUUCUAAGACGAAAGUCACUAGGACCGGGACCGAUGACU [TrypBS 5 #SwitchBubble #K4Middle] | 1450
22 | AACCACUCGUUACAUCACUAUCGAGUGGAACGAGGACCGGUACGGCCGCCACUCGAUAACUUGCAGUGAUGUUGCAAGUAAGAAU [(T)''-(K)'-(T)'-(T1)-(T2)-(K1)-(K2)_Design9] | 472

Same assay, conditions: Eterna round: R107; input ligand: theophylline 20 uM

Row | Sequence | apparent KD of K4 kissing-loop reporter [nM]
23 | GCCGUAGAUGGAAGGAGCGUGCCUUUCAGUUAUAGUGAUGUUAUAACCGAGGAACGGUUGGCACAGGUAGGUCGCCAUCUACGGC | 112
24 | AAUGUGCAGGGAAGGAGCGUAGUCCAGUGCUGUUGGAGUUAAAUACCAGUGAUGUUGGUUAUACAGGUAGGUCGCCCUAAAGCGC [whbob_Ex_Arginine_B_2th160] | 211
25 | GGCACGGGCUCGGCCGCCACUCCCGCGGGUCGAAAGGUCCGCUACUGAGUGAUGUUCGGUUGGAGGAGGACCGGGAGCCCGUGCC [#2 Exclusion - Tryptophan B Attempt #23 (HarryS)] | 99.9
26 | UGGAUAUAGUGAUGUUAUAUAGAGAUGGAUACCAGCAAAGAGAAUUGCCCUUGGCAGCCGAAAGAAGUAUCAUUAGAGAAGAAUG [ExTheophyl.Af] | 277
27 | GGCGGCCGCGCGCAAGCGCGGCCGGCCGAUACCAGCGCGACGGCGCGCCCUUGGCAGCGGCGCCGAGUGAUGUUCGGCCUGCCGU [#2 Same State - Theophylline A Attempt #15 (HarryS)] | 94.2

From the supplement of paper PMC9170038
